Test: yeast display, Sf9 membrane polyspecificity reagent, FACS + sequencing; frameworks hold sequencing errors
Method in brief: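 In a synthetic yeast display library (Saccharomyces cerevisiae BJ5465), nanobody expression was induced with galactose for 36–48 hours. FACS gates were set low and high (top ~1%) using anti-HA fluorescence for expression and streptavidin fluorescence for binding of the Sf9 membrane reagent. Each polyreactivity label is drawn from the gate of origin.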
With “QVQLVESGGGLVQAGGSLRLSCAASGLTFSHYAMGWYRQAPGKERELVAGISSRGGNTYYADSVKGRFTISRDYAKNTVYLQMNSLKPEDTAVFYCNAPKPKRAYDYWGQGSQVTVSS” the “polyreactivity (PSR sort gate)” value was “high polyreactivity”.
For “QVQLVDSGGGLVQAGGSLRLSCAASGITFYFNAMGWYRQAPGKERELVAAITRGGRTNYADSVKGRFTISRDNAKNTVYLQMNSLKPEDTAFYYCAAYIYRGRETNGPDYYYWGQGTQVTVSS”, the “polyreactivity (PSR sort gate)” value was “low polyreactivity”.
With “HVQLVESGGGLVQAGGSLRLSCAASGSIFSGNAMGWSRQAPGKERELVAAIDWSGDSTYYADSVKGRFTLSRDNAKNTVYLQMNSLKPEDTAVYYCNTVSFSWGYSAYDYWGQGTQVTVSS” the “polyreactivity (PSR sort gate)” value was “low polyreactivity”.
In the case of “QVQLVESCGGLVQAGGSLRLSCAASGSTFYRNAMGWYRQAPGKEREFVAAISFRGGGTYADSVKGRFTISRDNAKNTVYLQMNSLKPEDTAVYYCAADHLSYRRRYEYWGQGTQVTVSS”, the “polyreactivity (PSR sort gate)” value is reported as “low polyreactivity”.
For “QVQLVESGGGLVQAGGSLRLSCAASGFIFSKNAMGWYRQAPGKERELVARITRRVGSTYYADSVKGRFTISRDNAKITVYLQMNSLKPEDTAVYYWAAVVHIQRSTRDYWGQGTQVTVSS”, the “polyreactivity (PSR sort gate)” value was “high polyreactivity”.
With “QVQLVESGGGLVQAGGSLRLSCASSGSTFKRYAMGWYRQAPGKERELVAAITLSGGNTYYADSVKGRFTISRDTAKNTVYLQLNSLKPEDTAVYYCAARRYRGYDYWGQGTQVTVTS” the “polyreactivity (PSR sort gate)” value was “high polyreactivity”.
In the case of “QVQLVESWGALVQAGGSLRLSCAASGSTFGYYAMGWYRQAPGKDRELVAAITRSGGSTSYADSVTGRFTISRDNAKNTVYLQMNSLKPEATAVYYCAARFYRPYYARQGYNYWGQGTKVTVSS”, the “polyreactivity (PSR sort gate)” value is reported as “high polyreactivity”.
For “QVQLVESGGGLVQAGGSLRLSCAASGRIFYRYAMGWYRQAPGKERELVAAIRYSGGRTYYADSVKGRFTISRDNAKNTVYLQMNSLKPEDTAVYYCAADGQWYYAPFRGGDYENDYWGQGTQVTVSS”, the “polyreactivity (PSR sort gate)” value was “low polyreactivity”.
For “QVQLVESGGGLVQAGGSLRLSCAASGLILDGNVMGWYRQAPGKERELVAAINTSGGSTYYADSVKGRFTISRDNAKNTVYLQMNSLKPEDTAVYYCAARYPSDYDYWGQGTQVTVSS”, the “polyreactivity (PSR sort gate)” value was “low polyreactivity”.
With “QDQLVDSGGGLVQAGGSLSLSCAASGRTSGRYAMGWYRQAPGKERELVAGITSSGGSTYYADSVKGRFTISRDNAKNTVYLQMNSLKPEDTAVYYCAKVWGAKGKTYRMYSWGKGTQVTVSS” the “polyreactivity (PSR sort gate)” value was “high polyreactivity”.
With “QVQLVESGGGLVQAGGSLRLSCAASGITFRLYAMGWNRQAPGKERELVAAITGSGGRTYYADSVKGRFTISRDNAKNTVYLHMNSLKPEDTAVYYCAADWRHLRYRGGLKYDYWGQGTQVTFSS” the “polyreactivity (PSR sort gate)” value was “high polyreactivity”.
In the case of “QVQLVESGGGLVQAGGSLRLSCAASGRISVFNAMGWYRQAPGKDRELVAAITNGGSTNYADSVKVRFTISRDNAKNTVYLLMNSLKPEDTAVYDCAASVGTYAYGRTVYRYDYWGQGTQVTVSS”, the “polyreactivity (PSR sort gate)” value is reported as “low polyreactivity”.
In the case of “QVQLVESGGGLVQAGGSLRISCAASGITFPYYAMGWYRQAPGKERELVADITSGGSTNYADSVKGRFTISRDNAKNTVYLQMNSLKPEDTAVYYCAADWYVIYDYWGQGTQVTVSS”, the “polyreactivity (PSR sort gate)” value is reported as “low polyreactivity”.
With “QVQLVESGGGLVQAGGSLRLICAASGRTFPGYGMGWYRQAPGKERELVAVITSNGGITYYADSVKGRFTISRDNAKNTVYLQMNSLKPEDTAVYYCAAYEIYNEFDSWGQGTQVTVSS” the “polyreactivity (PSR sort gate)” value was “low polyreactivity”.
With “QVQLVESGGGLVQAGGSLRLSSSASGGTFWDYAMGCYRQAPGKERELVAAINWSGDSTYADSVKGRFTISRDNAKNTCYLQMTSLKPEDTAVYYCNADVWYYRMDYWGQGTQVTVSS” the “polyreactivity (PSR sort gate)” value was “low polyreactivity”.
For “QVHLVESGGGLVQAGGSLRLSCAASGRTFGYYAMGWYRQAPGKERELVAAITRTGGSTHYADSVKGRFTISRDNAKNTVYLQMNSLKPEDTAVYYCAADKRGTVYLSSFWMDYWGQGTQVTVSS”, the “polyreactivity (PSR sort gate)” value was “low polyreactivity”.
For “QFQLVETGGGIVHAGGSLRLSCAASGSTFWYYAMGWYRQAPGKERELVAGITQSGGSTYYADSVKGRFTISRDNAKNTVYLQMNSLKPEDSAVYYFAKDGRVSGDFVYWGQGTQVTVSS”, the “polyreactivity (PSR sort gate)” value was “low polyreactivity”.
In the case of “QVQLVESGGGLVQAGGSLRLSCAASGFIFAFYARGWYRQAPGKERELVASISRRSGSTYYADSVKGRFTISRDNAKNNVYLQMNSLKPEDTAVYYCSADRPPWETYGYDYWGQGTQVTVSS”, the “polyreactivity (PSR sort gate)” value is reported as “low polyreactivity”.
In the case of “QVQLVESGGGLVQAGGSLRLSCAASGYIFGFYAKGWYRQAPGKERELVARITYSGTSTYYADSVKGRFTISRDNAKNTVYLQMNSLKPEDTAVYYCAKRNKRSAWDSDEYDYWGQGTQVTVSS”, the “polyreactivity (PSR sort gate)” value is reported as “low polyreactivity”.
For “QVQIVESGGGLVQAGGSLRLSCAASGFIFDFYTMGWYRQAPGKERELVAAITWSGDSTYYADSVKGRFTISRDNAKNTVYLQMNSLKPEDTGVYYCAADWWGVWYFDYDYWGQGTQVTVSS”, the “polyreactivity (PSR sort gate)” value was “low polyreactivity”.
In the case of “QVQLVESGGGLVQAGGSLRLSCAASGITFHYKAMGWYIQAPGKERELVATIRRGGITKYADSVKGRFTISRDNAKNTVYLQMNSLKPEDTAVYYCAAGYYSHGAWFDHWGEGTQVTVSS”, the “polyreactivity (PSR sort gate)” value is reported as “low polyreactivity”.
In the case of “QVQLVESGGGLVQAGGSLRLSCAASGSTFGVNAMGWYRQAPGKERELVAGISSGTSTYYADSVKGRFTISRDNAKNTVYLQMNSLKPEDTAVYYCATRWSYRYGYWGQGTQVTVSS”, the “polyreactivity (PSR sort gate)” value is reported as “high polyreactivity”.
With “QVQLVESGGGLVQAGGSLGLSCAASGRTFQQNAMGWYRQAPGKERELVAALNSRGGRTYYADYVKGRFTISRDNAKNTVYLQMNSLKPEDTAVYYCAARYYWGQGTEVTVSS” the “polyreactivity (PSR sort gate)” value was “high polyreactivity”.
For “QVQLVESGGGLVQAGGSLRLSCAASGRIFGYYAMGWYRQAPGKERELVAAISNGGSTHYADSVKGRFTISRDNANNTVYLQMTSLKPEDTAVYYCAAKASRVDWGYGYWGQGTQVTVSS”, the “polyreactivity (PSR sort gate)” value was “high polyreactivity”.
With “QVQLVESGGGLVQAGGSLRLSCAASGSIFGEYAMGWYRQAPGKERELVAAITFSTGSTYYADSVKGRFTISRDNAKNTVYLQMNSLKPEDTAVYYCAAESYTYYWYDYEYWGQGTQVTVSS” the “polyreactivity (PSR sort gate)” value was “high polyreactivity”.
With “QVQLVESGGGLVQAGGSLRLSCAASGRIFVLYDMGWYRQAPGKERELVAGISGSGGRTYYADSVKGRFTISRDNAKNTVYLQMNSLKPEDTAVYYCNARGYYWYRPYVNSNGGYWGQGTQVTVSS” the “polyreactivity (PSR sort gate)” value was “high polyreactivity”.
In the case of “QVQLVESGGGIVQAGGSLRLSCAASGSIFKTNPMGWYRQAPGKERELVADISPSSGRTYYADSVKGRFTISRDNSKNTVYLQMNCLKPDDTAVYYCNRLSRRGYDYWGQGTQVTVSS”, the “polyreactivity (PSR sort gate)” value is reported as “high polyreactivity”.
With “QVHLAESGGGLVQAGGSLRLSCASSGIIFYFYAMGWYRQAPGKERELVAAISGTGGRTYYADSVKGRFTISRDNAKNTVYLQMNSLKPEDTAVYYCNADDTPVPSIRFDYWGQGTQVTVSS” the “polyreactivity (PSR sort gate)” value was “low polyreactivity”.
For “QVQLVESGGGLVQAGGSLRLSCAASGITFYRYAMGWYRQAPGKERELVASISSRGSSTYYADSVKGRFTISRDNAKNTVYLQMNSLKPEDTAVYYCAKSRGSRGFVASTYNYWGQGTQVTVSS”, the “polyreactivity (PSR sort gate)” value was “high polyreactivity”.
With “QVQLVESGGGLVQAGGSLRLSCAASGRTFSAYAMGWYRQAPGKERELVARITSVDSTNYADSVKGRFTISRDNAKNTVYLQMNSLKPEDTAVYYCNATFGYPFVDYDDYWGQGTQVTGSS” the “polyreactivity (PSR sort gate)” value was “low polyreactivity”.
For “QVQLVESGGGLVQAGGSLRLSCAASGRTFWRYAMGWYRQAPGKERELVAAISSGGRTNYADSVKGRFTISRDNAKNTVYLQMNSLKPEDTAVYYCAVKTVRSSSRNYWGQGTQVTVSS”, the “polyreactivity (PSR sort gate)” value was “high polyreactivity”.
In the case of “QVQLVESGGGLVQAGGSLRLSCAASGRIFKKNAMGWYRQAPGKERELVATITQRGGTTYYADSVKGRFTISRDNAKNTVYLQMNSLKPEDTAVYYCATEGYETWSYWYRGAYTYYYWGQGTQVTVSS”, the “polyreactivity (PSR sort gate)” value is reported as “high polyreactivity”.
With “QVQLVESGGGLVQAGGSLRLSCDASGSTFISYAMGWFRQAPGKERELVAAISSGGGRTSYADSVKGRFTISRDNEKNTVYLQMNSLKPEDTAVYYCNTKKLPYAEGYWGQGTQVTVSS” the “polyreactivity (PSR sort gate)” value was “low polyreactivity”.
For “QVQLVESGGSLVQAGGSLRLICAASGFIFWTYAMGWYRQAPGKERELVARISWSGGSTYYADSVKGRFTNSRDNAKNTVYLQMNSLKPEDTAVYYCAALTESSSYGYWGQGTQVTVSS”, the “polyreactivity (PSR sort gate)” value was “low polyreactivity”.
In the case of “QVQLVESVGGLVQAGGSLRLSCAASGSTFQSNGMGWYRQAPGKERELVAAITSTDASTSYADSVKGRFTISRDNAKITVYLQMNSLKPEDTAVYYCAADFPVASGAELDYWGQGTQVTVSS”, the “polyreactivity (PSR sort gate)” value is reported as “low polyreactivity”.
With “QVQLVESGGGLVQAGGSLRLSCAASGLTFGFYAMGWYRQAPGKERELVAGISNGGSTNYADSVKARFTISRDNAKNTVYLQMNSLKPEDTAVFYCAAQGEYGFTAYYPGDSWGQGTQVTVSS” the “polyreactivity (PSR sort gate)” value was “low polyreactivity”.
For “QVQLVESGGGLVQAGGSLRLSCAPSGYTFARYAMGWSRQAPGKDRELVAAITSSGGSTYYADSVKGRFTSSRDNAKNTVYLQMNSLKPEDTAVYYCNARGFQKSDPRGYLILNYWGQGTQVTVSS”, the “polyreactivity (PSR sort gate)” value was “high polyreactivity”.
In the case of “QVQLVESGGGLVQAGGSLRLSCAASGRTFYYYAMGWYRQAPGKERELVAGISWSAGSTYYADSVKGRFTISRDYAKNTVYLQMNSLKPEDTAVYYCAARYWQSYRSQVTHSSTLDYWGQGTQVTVSS”, the “polyreactivity (PSR sort gate)” value is reported as “low polyreactivity”.
With “QVQLVESGGGLVQAGGSLRLSCAASGSIFPWYTMGWYRQAPGKEREFVAAISWSGGSTYYADSVKGRFTISRDNAKNTDYLQMNSLKPEETAVYYCAASRRPWYRAVTWNAGDYWGQGTQVTVSS” the “polyreactivity (PSR sort gate)” value was “high polyreactivity”.
For “QVQLVESGGGLVQAGGSLRLSCAASGLTFNAYPMGCYRQAPGKEWELVAAITSRGSSTYYADSVKGRFTISRDNAKNTVYLQMNSLKPEDTAVYYCAARQRGYYYSRRYDYWGQGTQVTVSS”, the “polyreactivity (PSR sort gate)” value was “high polyreactivity”.
For “QVQLVESGGGLVQAGGSLRLSCAASGRIFLQNAMGWYRQAPWKERELVASISSSGGTTYYADSVKGRFTISRDNAKNTVYLQMNSLKPEDTAVYYCAADYGHYSTPMDYWGQGTQVTVSS”, the “polyreactivity (PSR sort gate)” value was “low polyreactivity”.
For “QVQLVESGGGLVQAGGSLRLSCAASGFTFGSNTMGWYRQAPGKERELVAAITYTGGRTYYADSVKGRFTISRDNAKNTVYLQMNSLKPEDTAVYYCAAEYHFWSYSPGYDYWGQGTQVTVSS”, the “polyreactivity (PSR sort gate)” value was “high polyreactivity”.
For “QVQLVESGGGLVQAGGSLRLSCAASGSIFKYNAMGWYRQAPGKERELVATITSSGSTTYYADSVKGRFTISRDNAKYTVYLQMNSLKPEDTAVYYCNARYSYRRDYWGQGTEVTVSS”, the “polyreactivity (PSR sort gate)” value was “high polyreactivity”.

Reference: the nanobody polyreactivity screen of Harvey et al. (2022)
